Among the data in PMC7064779 are percent of total β1-integrin extracted values, retold here.

This test concerns the target LecB-biotin (Pseudomonas aeruginosa lectin LecB, biotinylated) (Pseudomonas aeruginosa) (UniProt Q9HYN5). Description: pull-down; LecB-biotin applied basolaterally to polarized filter-grown MDCK cells; cells lysed; LecB-biotin-receptor complexes precipitated with streptavidin beads; β1-integrin probed by Western blot in precipitate and supernatant.

For “β1-integrin (glycosylated, endogenous in MDCK cells) (receptor)”, the percent of total β1-integrin extracted was 75%.
